Data reported in publication PMC2110890, “Glutathione mediated regulation of oligomeric structure and functional activity of Plasmodium falciparum glutathione S-transferase” (BMC Structural Biology, 2007).

Tests used:
human GST (human) [1] = biological target: human GST (human) (UniProt P09211); assay: cross-linking; 1% glutaraldehyde, 30 min, room temperature, protein 50 μg/mL, 10% SDS-PAGE; sample without GSH
human GST (human) [2] = biological target: human GST (human) (UniProt P09211); assay: cross-linking; 1% glutaraldehyde, 30 min, room temperature, protein 50 μg/mL, 10% SDS-PAGE; sample incubated with GSH
human GST (human) [3] = biological target: human GST (human) (UniProt P09211); assay: SEC; Superdex 200 10/300 GL, 100 mM potassium phosphate pH 8.0, 1 mM EDTA, 0.3 mL/min, 25°C; incubated and run without GSH
human GST (human) [4] = biological target: human GST (human) (UniProt P09211); assay: SEC; Superdex 200 10/300 GL, 100 mM potassium phosphate pH 8.0, 1 mM EDTA, 25°C; incubated and run with GSH at 0.7 mM or more (2 mM GSH in Figures 1B and 3)
[5] = biological target: the molecule itself; assay: SEC; GSH-stabilized dimer dialysed for 4 h against buffer without GSH, then loaded on the column
[6] = biological target: the molecule itself; assay: SEC; Superdex 200 10/300 GL, 100 mM potassium phosphate pH 8.0, 1 mM EDTA, 0.3 mL/min, 25°C; incubated and run without GSH
[7] = biological target: the molecule itself; assay: SEC; Superdex 200 10/300 GL, 100 mM potassium phosphate pH 8.0, 1 mM EDTA, 25°C; incubated and run with GSH at 0.7 mM or more (2 mM GSH in Figures 1B and 3)

Chain of human GST (P09211 whole entry): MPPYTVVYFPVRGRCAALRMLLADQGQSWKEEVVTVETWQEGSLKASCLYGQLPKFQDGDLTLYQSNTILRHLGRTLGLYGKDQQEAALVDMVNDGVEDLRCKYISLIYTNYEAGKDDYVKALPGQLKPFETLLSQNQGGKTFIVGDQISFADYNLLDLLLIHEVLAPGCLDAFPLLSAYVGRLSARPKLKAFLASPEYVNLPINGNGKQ

Row | Molecule | stoichiometry N (human GST (human) [1]) | stoichiometry N (human GST (human) [2]) | stoichiometry N (human GST (human) [3]) | stoichiometry N (human GST (human) [4]) | ratio of dimer to tetramer [5] | stoichiometry N [6] | stoichiometry N [7]
1 | human GST (from UniProt P09211 1-210) (enzyme) | 2 | 2 | 2 | 2 |  |  | 
2 | Plasmodium falciparum glutathione S-transferase (enzyme, UniProt Q8ILQ7 1-211, looked up, Glutathione S-transferase of Plasmodium falciparum (PfGST), recombinant, about 26 kDa on SDS-PAGE; The chain is a homotetramer without GSH and a homodimer at GSH of 0.7 mM or more, so copies is left empty; also called PfGST; recombinant PfGST; source: E. coli M15, purified (Ni-NTA agarose)) MGDNIVLYYFDARGKAELIRLIFAYLGIEYTDKRFGVNGDAFVEFKNFKKEKDTPFEQVPILQIGDLILAQSQAIVRYLSKKYNICGESELNEFYADMIFCGVQDIHYKFNNTNLFKQNETTFLNEDLPKWSGYFEKLLKKNHTNNNNDKYYFVGNNLTYADLAVFNLYDDIETKYPSSLKNFPLLKAHNEFISNLPNIKNYITNRKESVY |  |  |  |  | ~0.33 dimer:tetramer | 4 | 2
